According to article PMC5571166, “Mapping the key residues of SufB and SufD essential for biosynthesis of iron-sulfur clusters” (Scientific Reports, 2017):

T1: SufB^Q285A (Escherichia coli, UniProt P77522 1-495, SufB^Q285A)
T1 construct: SufB of the Escherichia coli sufABCDSE operon; source: pBBR-sufAB carrying the mutation, in bacterial extract
T1 sequence: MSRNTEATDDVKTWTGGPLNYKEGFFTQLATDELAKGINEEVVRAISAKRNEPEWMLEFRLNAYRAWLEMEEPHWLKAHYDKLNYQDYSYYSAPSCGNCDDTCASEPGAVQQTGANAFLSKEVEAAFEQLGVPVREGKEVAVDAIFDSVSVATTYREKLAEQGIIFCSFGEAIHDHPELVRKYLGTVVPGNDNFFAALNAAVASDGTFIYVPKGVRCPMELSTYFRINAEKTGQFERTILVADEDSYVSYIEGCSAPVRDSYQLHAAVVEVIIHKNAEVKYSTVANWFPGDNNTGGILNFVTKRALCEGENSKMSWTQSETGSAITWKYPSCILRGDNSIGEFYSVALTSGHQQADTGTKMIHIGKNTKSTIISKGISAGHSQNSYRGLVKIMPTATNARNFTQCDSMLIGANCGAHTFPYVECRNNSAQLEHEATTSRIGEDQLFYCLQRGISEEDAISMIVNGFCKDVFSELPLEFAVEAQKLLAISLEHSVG

B1: SufD (natural protein, Escherichia coli)
chain: MAGLPNSSNALQQWHHLFEAEGTKRSPQAQQHLQQLLRTGLPTRKHENWKYTPLEGLINSQFVSIAGEISPQQRDALALTLDSVRLVFVDGRYVPALSDATEGSGYEVSINDDRQGLPDAIQAEVFLHLTESLAQSVTHIAVKRGQRPAKPLLLMHITQGVAGEEVNTAHYRHHLDLAEGAEATVIEHFVSLNDARHFTGARFTINVAANAHLQHIKLAFENPLSHHFAHNDLLLAEDATAFSHSFLLGGAVLRHNTSTQLNGENSTLRINSLAMPVKNEVCDTRTWLEHNKGFCNSRQLHKTIVSDKGRAVFNGLINVAQHAIKTDGQMTNNNLLMGKLAEVDTKPQLEIYADDVKCSHGATVGRIDDEQIFYLRSRGINQQDAQQMIIYAFAAELTEALRDEGLKQQVLARIGQRLPGGAR
notes: SufD of the Escherichia coli sufABCDSE operon; One SufD per SufBCD complex (1:2:1); also called SufD subunit of the SufBCD complex
B2: SufC (natural protein, Escherichia coli)
chain: MLSIKDLHVSVEDKAILRGLSLDVHPGEVHAIMGPNGSGKSTLSATLAGREDYEVTGGTVEFKGKDLLALSPEDRAGEGIFMAFQYPVEIPGVSNQFFLQTALNAVRSYRGQETLDRFDFQDLMEEKIALLKMPEDLLTRSVNVGFSGGEKKRNDILQMAVLEPELCILDESDSGLDIDALKVVADGVNSLRDGKRSFIIVTHYQRILDYIKPDYVHVLYQGRIVKSGDFTLVKQLEEQGYGWLTEQQ
notes: SufC of the Escherichia coli sufABCDSE operon; also called SufC subunit of the SufBCD complex

Legend:
SufB^Q285A = target: T1, SufB^Q285A; test: SEC; SufBCD complexes co-expressed in E. coli and co-purified on Phenyl FF, Q XL and Sephacryl S-200; eluted from gel filtration at about 160 kDa; subunit composition checked by SDS-PAGE of the purified sample; details: both partners purified
SufD = target: B1; test: as above; details: both partners purified

| binding result (SufB^Q285A) | binding result (SufD) | Binder |
| --- | --- | --- |
| binds | – | B1 |
| binds | binds | B2 |
